The record followed here is article PMC5615192 (mBio, 2017).

The series “crystal structure” concerns the molecule itself. In words: crystal structure.
Series [1] addresses T1, HPV58 L1 pentamer (Human papillomavirus type 58 (GenBank …, UniProt P26535)).
T1 construct: also called HPV58p; HPV58 pentamer; source: cloned into pTO-T7
Briefly: SPR; Biacore 3000; MAb (10 ug/ml) […]; HBS (10 mM HEPES pH 7.4, 150 mM NaCl); […]. The following applies: both partners purified. Background: SPR reads the build-up and loss of mass on a sensor chip optically.

In series [2] the target is T2, HPV58 L1 pentamer (human papillomavirus type 58, UniProt P26535 34-524).
T2 chain: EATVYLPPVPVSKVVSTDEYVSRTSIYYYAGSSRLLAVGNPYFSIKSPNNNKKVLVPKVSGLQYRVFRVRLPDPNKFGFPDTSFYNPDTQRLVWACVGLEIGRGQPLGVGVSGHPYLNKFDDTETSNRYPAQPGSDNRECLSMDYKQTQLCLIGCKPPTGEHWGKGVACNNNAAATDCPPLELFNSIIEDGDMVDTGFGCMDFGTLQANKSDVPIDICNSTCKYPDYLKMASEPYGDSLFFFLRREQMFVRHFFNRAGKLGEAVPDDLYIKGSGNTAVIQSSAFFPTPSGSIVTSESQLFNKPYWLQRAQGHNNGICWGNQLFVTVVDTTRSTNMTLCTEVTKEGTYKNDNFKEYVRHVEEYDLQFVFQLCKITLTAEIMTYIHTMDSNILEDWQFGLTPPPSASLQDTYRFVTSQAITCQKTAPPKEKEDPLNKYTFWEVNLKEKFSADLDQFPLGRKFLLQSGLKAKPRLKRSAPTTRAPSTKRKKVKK
Briefly: ELISA. For orientation: ELISA stands for enzyme-linked immunosorbent assay.

In a further series the target is T3, HPV58 L1 VLP (human papillomavirus type 58, UniProt P26535 34-524).
T3 chain: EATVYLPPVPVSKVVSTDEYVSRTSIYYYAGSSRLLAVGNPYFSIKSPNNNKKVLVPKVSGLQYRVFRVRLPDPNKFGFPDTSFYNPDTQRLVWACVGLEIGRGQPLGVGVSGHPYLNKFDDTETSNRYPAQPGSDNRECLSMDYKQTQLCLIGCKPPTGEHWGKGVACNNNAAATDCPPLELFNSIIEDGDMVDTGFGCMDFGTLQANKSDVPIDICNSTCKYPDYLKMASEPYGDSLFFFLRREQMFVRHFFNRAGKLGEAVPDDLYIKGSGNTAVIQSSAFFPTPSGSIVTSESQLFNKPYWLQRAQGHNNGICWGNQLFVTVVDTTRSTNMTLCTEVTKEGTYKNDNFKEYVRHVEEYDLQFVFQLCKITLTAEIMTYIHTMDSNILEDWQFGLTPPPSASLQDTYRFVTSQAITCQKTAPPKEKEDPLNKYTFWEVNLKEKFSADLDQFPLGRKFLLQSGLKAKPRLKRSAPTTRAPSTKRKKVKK
Briefly: ELISA.

The target of series [3] is HPV33 KAT L1 VLP (triple mutant K161R, A168S, T308N) (human papillomavirus type 33) (UniProt P06416).
Series [4] concerns the target T4, HPV58 L1 VLP R161A (human papillomavirus type 58) (UniProt P26535).
T4 sequence: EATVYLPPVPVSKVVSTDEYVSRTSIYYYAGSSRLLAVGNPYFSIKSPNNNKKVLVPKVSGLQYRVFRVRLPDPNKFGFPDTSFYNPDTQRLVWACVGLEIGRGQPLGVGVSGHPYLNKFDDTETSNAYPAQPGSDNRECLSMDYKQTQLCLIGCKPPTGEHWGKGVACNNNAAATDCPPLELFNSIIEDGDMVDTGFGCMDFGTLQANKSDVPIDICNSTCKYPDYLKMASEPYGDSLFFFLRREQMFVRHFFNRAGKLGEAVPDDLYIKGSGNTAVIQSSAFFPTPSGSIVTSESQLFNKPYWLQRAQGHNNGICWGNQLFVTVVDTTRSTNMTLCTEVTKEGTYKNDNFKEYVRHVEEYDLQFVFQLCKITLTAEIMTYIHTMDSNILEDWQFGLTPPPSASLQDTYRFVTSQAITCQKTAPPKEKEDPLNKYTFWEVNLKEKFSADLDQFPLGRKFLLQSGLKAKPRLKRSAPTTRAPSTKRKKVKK
In words: ELISA; indirect ELISA; wells coated with wild-type or mutant VLPs or pentamers (300 ng/well, overnight at 4°C); 2-fold serial dilutions of the antibody, 1 h at 37°C; detected with HRP goat anti-mouse IgG.

The target of series [5] is T5, HPV58 L1 VLP D154A (human papillomavirus type 58) (UniProt P26535).
T5 sequence: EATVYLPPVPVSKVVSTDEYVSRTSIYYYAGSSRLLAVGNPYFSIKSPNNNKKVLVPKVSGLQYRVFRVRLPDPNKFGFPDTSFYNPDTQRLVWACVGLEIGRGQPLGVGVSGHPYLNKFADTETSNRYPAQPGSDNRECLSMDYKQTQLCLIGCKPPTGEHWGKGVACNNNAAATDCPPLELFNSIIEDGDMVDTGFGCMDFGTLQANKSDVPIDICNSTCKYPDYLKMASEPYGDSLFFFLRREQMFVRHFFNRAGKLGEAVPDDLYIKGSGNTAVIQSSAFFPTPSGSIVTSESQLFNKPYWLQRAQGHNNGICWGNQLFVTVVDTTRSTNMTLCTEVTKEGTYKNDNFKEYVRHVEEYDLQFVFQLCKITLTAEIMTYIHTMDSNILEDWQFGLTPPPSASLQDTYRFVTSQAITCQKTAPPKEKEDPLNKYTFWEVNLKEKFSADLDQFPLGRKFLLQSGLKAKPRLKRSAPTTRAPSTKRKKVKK
The description is as above.

Series [6] concerns the target T6, HPV58 L1 VLP N308A (human papillomavirus type 58) (UniProt P26535).
T6 sequence: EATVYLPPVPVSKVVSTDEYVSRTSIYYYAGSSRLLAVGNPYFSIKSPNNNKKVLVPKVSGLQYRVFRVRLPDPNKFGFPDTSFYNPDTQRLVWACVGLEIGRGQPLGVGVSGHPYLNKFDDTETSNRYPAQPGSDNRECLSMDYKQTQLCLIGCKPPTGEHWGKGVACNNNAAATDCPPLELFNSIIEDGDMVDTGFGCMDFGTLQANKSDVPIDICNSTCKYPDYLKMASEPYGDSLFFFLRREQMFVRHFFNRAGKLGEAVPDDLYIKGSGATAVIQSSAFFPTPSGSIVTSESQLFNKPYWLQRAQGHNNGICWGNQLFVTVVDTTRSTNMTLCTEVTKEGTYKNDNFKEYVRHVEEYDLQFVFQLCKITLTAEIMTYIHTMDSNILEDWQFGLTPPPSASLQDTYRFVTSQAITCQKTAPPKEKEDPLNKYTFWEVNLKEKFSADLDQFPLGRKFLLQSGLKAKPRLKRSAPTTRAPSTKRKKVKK
The description is as above.

Series [7] has as its target T7, HPV58 L1 pentamer (human papillomavirus type 58, UniProt P26535).
T7 construct: also called HPV58p; HPV58 pentamer
Briefly: crystal structure. The following applies: both partners purified.

The target of another series is T8, HPV59 L1 VLP (human papillomavirus type 59).
T8 chain: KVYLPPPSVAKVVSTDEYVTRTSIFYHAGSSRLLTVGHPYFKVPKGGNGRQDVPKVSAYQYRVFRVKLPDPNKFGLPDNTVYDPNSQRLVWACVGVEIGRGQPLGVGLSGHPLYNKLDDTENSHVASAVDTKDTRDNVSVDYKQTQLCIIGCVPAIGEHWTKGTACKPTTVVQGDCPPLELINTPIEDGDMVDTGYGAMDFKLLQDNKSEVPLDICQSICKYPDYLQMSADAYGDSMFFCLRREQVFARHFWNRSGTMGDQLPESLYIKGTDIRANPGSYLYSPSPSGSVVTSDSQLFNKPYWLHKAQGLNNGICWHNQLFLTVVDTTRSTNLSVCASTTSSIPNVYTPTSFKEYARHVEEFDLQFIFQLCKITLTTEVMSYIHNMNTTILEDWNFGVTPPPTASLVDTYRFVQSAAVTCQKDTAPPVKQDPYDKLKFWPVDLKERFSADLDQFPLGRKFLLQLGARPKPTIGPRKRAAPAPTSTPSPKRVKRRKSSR
Briefly: ELISA.

Another series concerns the target T9, HPV59 L1 pentamer (human papillomavirus type 59).
T9 chain: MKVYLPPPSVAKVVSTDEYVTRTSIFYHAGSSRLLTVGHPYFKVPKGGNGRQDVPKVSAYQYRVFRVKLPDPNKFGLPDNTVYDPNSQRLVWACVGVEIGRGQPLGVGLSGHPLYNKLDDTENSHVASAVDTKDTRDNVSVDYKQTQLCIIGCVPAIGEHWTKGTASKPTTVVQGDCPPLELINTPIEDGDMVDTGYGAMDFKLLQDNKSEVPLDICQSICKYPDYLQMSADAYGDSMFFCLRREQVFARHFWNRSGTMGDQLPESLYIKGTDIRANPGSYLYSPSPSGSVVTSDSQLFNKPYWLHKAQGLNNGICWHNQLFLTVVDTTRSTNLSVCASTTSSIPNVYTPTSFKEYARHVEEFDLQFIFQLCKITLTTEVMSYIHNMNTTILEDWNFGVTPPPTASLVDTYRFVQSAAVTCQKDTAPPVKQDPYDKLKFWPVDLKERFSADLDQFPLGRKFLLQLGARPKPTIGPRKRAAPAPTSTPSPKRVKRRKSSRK
Briefly: ELISA.

Series [8] concerns the target HPV18 TQG L1 VLP (triple mutant T270Q, Q273E, G281D) (human papillomavirus type 18).
Series [9] deals with HPV59 L1 pentamer Q270A (human papillomavirus type 59). Briefly: ELISA; indirect ELISA; wells coated with wild-type or mutant VLPs or pentamers (300 ng/well, overnight at 4°C); 2-fold serial dilutions of the antibody, 1 h at 37°C; detected with HRP goat anti-mouse IgG.
Series [10] has as its target HPV59 L1 pentamer M267A (human papillomavirus type 59). The description is as above.

B1: HPV58 L1 pentamer (natural protein)
chain: EATVYLPPVPVSKVVSTDEYVSRTSIYYYAGSSRLLAVGNPYFSIKSPNNNKKVLVPKVSGLQYRVFRVRLPDPNKFGFPDTSFYNPDTQRLVWACVGLEIGRGQPLGVGVSGHPYLNKFDDTETSNRYPAQPGSDNRECLSMDYKQTQLCLIGCKPPTGEHWGKGVACNNNAAATDCPPLELFNSIIEDGDMVDTGFGCMDFGTLQANKSDVPIDICNSTCKYPDYLKMASEPYGDSLFFFLRREQMFVRHFFNRAGKLGEAVPDDLYIKGSGNTAVIQSSAFFPTPSGSIVTSESQLFNKPYWLQRAQGHNNGICWGNQLFVTVVDTTRSTNMTLCTEVTKEGTYKNDNFKEYVRHVEEYDLQFVFQLCKITLTAEIMTYIHTMDSNILEDWQFGLTPPPSASLQDTYRFVTSQAITCQKTAPPKEKEDPLNKYTFWEVNLKEKFSADLDQFPLGRKFLLQSGLKAKPRLKRSAPTTRAPSTKRKKVKK
notes: also called HPV58p; HPV58 pentamer
For the molecule B1, in the series “crystal structure”, the stoichiometry N – broadly, a count of units in the complex or per binding partner – amounted to 5.

B2: MAb A12A3 (antibody, V domains shown)
VH: EVQLQQSGAELVRPGALVKLSCKASGFNIKDYYMHWVKQRPEQGLEWIGWIDPENGKTIYDPRFRGKASITADTSSNTAYLQLSSLTSEDAAVYYCATSNYRYDRSFDYWGQGTTLTVSA
VL: DIQMTQSPSSLFASLGGKVTITCKASQDINKYIAWFQHKPGKGPRLLIHYTFTLQPGIPSRFSGSGSGRDYSFSISNLEPEDIATYYCLQYHNLYTFGGGTKLEIK
notes: also called A12A3 IgG
B2: in the series with HPV58 L1 pentamer [1], the Ka turned out to be 1.91e+08 M⁻¹; the Kd (commonly a measure of binding affinity in units of concentration) was determined as 5.33 nM; the koff – broadly, a measure of how fast the partners let go of each other – worked out at 0.0004 s⁻¹; the kon – broadly, the second-order rate constant of association – was 78400 M⁻¹ s⁻¹. In the series with HPV58 L1 pentamer [2], the EC50 (commonly the concentration that produces a half-maximal response) came to 0.0085 µg/mL. For the same molecule, in the series with HPV58 L1 VLP, the EC50 amounted to 0.0104 µg/mL. In addition, the IC50 of neutralisation of the HPV33 KAT PsV mutant in series [3] turned out to be 4.3 µg/mL. This molecule came in with a fold increase of the EC50 against the WT HPV58 VLP in [4] of 80 fold. In [5], this molecule displayed a fold increase of the EC50 against the WT HPV58 VLP of 2 fold. The molecule further yielded a fold increase of the EC50 against the WT HPV58 VLP in series [6] of 2 fold.

B3: A12A3 Fab (Fab, V domains shown)
VH: EVQLQQSGAELVRPGALVKLSCKASGFNIKDYYMHWVKQRPEQGLEWIGWIDPENGKTIYDPRFRGKASITADTSSNTAYLQLSSLTSEDAAVYYCATSNYRYDRSFDYWGQGTTLTVSA
VL: DIQMTQSPSSLFASLGGKVTITCKASQDINKYIAWFQHKPGKGPRLLIHYTFTLQPGIPSRFSGSGSGRDYSFSISNLEPEDIATYYCLQYHNLYTFGGGTKLEIK
notes: also called Fab fragment of A12A3; source: papain digestion of MAb A12A3, purified with DEAE-5PW exchange
In the case of B3, the “stoichiometry N” value in the series with HPV58 L1 pentamer [7] is 1 Fab per pentamer.

B4: MAb 28F10 (antibody, V domains shown)
VH: DVKLVESGGGLVKPGGSLKLSCAASGFPFSDYTMSWIRQTPEKRLEWVASISSGGTYTYYPDTVKGRFTISRDNAKNTLYLQMSSLKSEDTAMFYCTRASPYYDYDEGYMDYWGQGTSVTVSS
VL: DVVMTQTPLSLPVSLGDQASISCRSSQSLVHSNGNTYLHWYLQKSGQSPKLLIYKVSNRFSGVPDRFSGSGSGTDFTLKISRVEAEDLGVYFCSQSTHVPFTFGAGTKLELK
Consider B4, for which the results for the half-maximal effective concentration (EC50) with HPV59 L1 VLP and with HPV59 L1 pentamer were 0.005 µg/mL and 0.0464 µg/mL, respectively. This molecule also showed an IC50 of neutralisation of HPV18 TQG PsVs in series [8] of 0.0097 µg/mL. Moreover, the fold increase of the EC50 against the WT HPV59 pentamer in [9] worked out at 20 fold; in series [10] it was 10 fold.
